Measured values: publication PMC9694015

Key:
[1] = target: bacterial chalcone isomerase (CHI) from Eubacterium ramulus (Eubacterium ramulus) (UniProt V9P0A9); assay: crystal structure; hanging drop at 293 K, 6.8 mg/mL protein in 50 mM sodium phosphate pH 6.8; reservoir ammonium sulphate (1.8 M for CHI, 1.5 M for CHI_H33A), 0.2 M NaCl, 0.1 M HEPES pH 7.5; crystals soaked 10 min with 2.5 mM (+)-taxifolin; data at 100 K; hexamer seen in the asymmetric unit
[2] = target: bacterial chalcone isomerase (CHI) from Eubacterium ramulus, His33Ala variant (Eubacterium ramulus) (UniProt V9P0A9); assay: as above

| stoichiometry N [1] | stoichiometry N [2] | Substance |
| --- | --- | --- |
| 6 |  | bacterial chalcone isomerase (CHI) from Eubacterium ramulus (from UniProt V9P0A9 1-283) (enzyme) |
|  | 6 | bacterial chalcone isomerase (CHI) from Eubacterium ramulus, His33Ala variant (from UniProt V9P0A9 1-283) (enzyme) |
